Results on 4 substances are retold here after paper PMC8102920.

The data set has as its system eIF3 complex (purified, 13 subunits a-m) (rabbit (reticulocyte lysate)). The data set is described as follows: EMSA. Particulars: EMSA: 25 mM Tris-HCl pH 7.5, 5 mM Mg(OAc)2, 70 mM KCl, 0.1 mM CaCl2, 0.1 mg/ml BSA, 2 mM TCEP, 30 min at 25 C, 0.7% agarose in TBE, 75 mM KCl, 4 C; for binding signal (% RNA shifted at high eIF3): high eIF3 (4-8 uM lanes quantified). (A gel shift assay detects complexes by their altered migration in electrophoresis.)

For orientation: Kd means the concentration at which binding is half-saturated. Low readings indicate a tighter complex, high ones a looser complex.

As for H4 137-241 (4E-SE), the binding signal (% RNA shifted at high eIF3) is 14.

For the substance H4 1-137 (TWJ), the binding signal (% RNA shifted at high eIF3) was determined as 28.

As to H4 241-375 (eIF3-BS), the binding signal (% RNA shifted at high eIF3) amounted to 39.

For the substance H4 FL mRNA (1-375), the dissociation constant Kd was 4 µM.
